Results reported in PMC5068707 (PLoS Pathogens, 2016).

Assays:
Experiment in all cases: ITC
SUDV VP30 CTD (139–288) [1] = biological target: T1, SUDV VP30 CTD (139–288) (Sudan ebolavirus (SUDV), UniProt Q5XX03 139-288)
T1 chain: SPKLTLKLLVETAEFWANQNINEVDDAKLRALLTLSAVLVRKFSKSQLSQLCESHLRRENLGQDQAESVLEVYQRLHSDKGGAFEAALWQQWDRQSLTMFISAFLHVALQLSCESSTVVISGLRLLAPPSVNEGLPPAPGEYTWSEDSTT

SUDV VP30 CTD (139–288) [2] = biological target: T2, SUDV VP30 CTD (139–288) (Sudan ebolavirus (SUDV), UniProt Q5XX03 139-288); conditions: both partners purified
T2 sequence: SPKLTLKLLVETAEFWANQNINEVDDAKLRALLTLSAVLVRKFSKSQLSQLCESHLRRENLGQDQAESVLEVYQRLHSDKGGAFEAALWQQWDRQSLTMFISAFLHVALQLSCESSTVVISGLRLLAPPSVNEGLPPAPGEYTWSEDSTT

MARV VP30 CTD (146–281) = biological target: T3, MARV VP30 CTD (146–281) (Marburg virus (MARV), UniProt P35258 146-281)
T3 chain: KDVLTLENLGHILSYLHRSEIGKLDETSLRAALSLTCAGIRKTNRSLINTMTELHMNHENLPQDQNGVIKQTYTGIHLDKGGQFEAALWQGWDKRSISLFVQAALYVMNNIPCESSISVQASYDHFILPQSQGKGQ

[3] = biological target: T4, Ebola virus VP30 C-terminal domain (amino acids 139–288) (Ebola virus (EBOV), UniProt Q05323 139-288)
T4 chain: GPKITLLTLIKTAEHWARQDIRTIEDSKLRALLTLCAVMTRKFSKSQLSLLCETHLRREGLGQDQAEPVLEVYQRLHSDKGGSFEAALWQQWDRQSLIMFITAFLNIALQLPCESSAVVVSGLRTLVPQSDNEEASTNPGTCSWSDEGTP

Binder	Kd (SUDV VP30 CTD (139–288) [1]) [µM]	binding result (SUDV VP30 CTD (139–288) [2])	Kd (MARV VP30 CTD (146–281)) [µM]	Kd [3] [µM]
EQGVDLPPPPLYAQEKRQ [MARV NP peptide (552–569) fused to T4 lysozyme]	27.1			
RTPTVAPPAPVYRDHSEK [EBOV NP 600–617 fused to T4 lysozyme]	4.9	binds	35	
NTPTVAPPAPVYKDTGVD [SUDV NP peptide (600–617) fused to T4 lysozyme]	7.98		70	9.5
